Assay [1] deals with CD33SP-OKT3scFv-CD28TC (鼠抗人CD3抗体 OKT3单链抗体, shown on CHO cells). As to the kind of experiment: flow cytometry, 40 nM Biotin-Protein L on CHO cells transfected with OKT3scFv, Streptavidin PE. Background: A flow cytometer gives signals particle by particle.
Assay [2] deals with 全长的人CD226 (hCD226) on Jurkat cells (human) (UniProt Q15762). As to the kind of experiment: flow cytometry on Jurkat cells transfected with TIGIT and CD226.
Assay [3] deals with T1, PVR (Poliovirus receptor) expressed on CHO-OKT3 cells (Homo sapiens (Human)) (UniProt P15151).
T1 sequence: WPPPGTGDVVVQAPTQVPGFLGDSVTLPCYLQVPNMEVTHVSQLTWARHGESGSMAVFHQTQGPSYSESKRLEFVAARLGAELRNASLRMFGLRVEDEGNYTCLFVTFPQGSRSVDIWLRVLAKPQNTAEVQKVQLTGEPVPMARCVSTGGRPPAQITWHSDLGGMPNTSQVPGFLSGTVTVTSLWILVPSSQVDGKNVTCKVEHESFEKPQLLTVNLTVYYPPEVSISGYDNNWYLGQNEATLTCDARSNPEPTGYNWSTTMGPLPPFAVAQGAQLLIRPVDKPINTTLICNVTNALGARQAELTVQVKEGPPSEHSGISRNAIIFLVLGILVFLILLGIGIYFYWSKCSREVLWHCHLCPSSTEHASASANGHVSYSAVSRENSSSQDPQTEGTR
As to the kind of experiment: flow cytometry, 40 nM TIGIT-Fc on CHO-OKT3 cells transfected with PVR, anti-human Fc-PE.

Sequence of CD33SP-OKT3scFv-CD28TC (鼠抗人CD3抗体 OKT3单链抗体, shown on CHO cells) (scFv, as listed by the source): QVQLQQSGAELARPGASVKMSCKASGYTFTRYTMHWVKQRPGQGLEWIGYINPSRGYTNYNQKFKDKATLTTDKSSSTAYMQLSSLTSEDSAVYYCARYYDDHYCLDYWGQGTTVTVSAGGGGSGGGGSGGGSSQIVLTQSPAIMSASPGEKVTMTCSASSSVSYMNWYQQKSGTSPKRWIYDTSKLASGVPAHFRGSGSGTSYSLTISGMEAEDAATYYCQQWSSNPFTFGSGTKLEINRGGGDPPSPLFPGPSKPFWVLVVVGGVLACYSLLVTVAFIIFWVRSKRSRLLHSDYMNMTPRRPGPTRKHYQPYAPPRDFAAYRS
Sequence of UniProt Q15762 (Q15762 19-336 limits assumed): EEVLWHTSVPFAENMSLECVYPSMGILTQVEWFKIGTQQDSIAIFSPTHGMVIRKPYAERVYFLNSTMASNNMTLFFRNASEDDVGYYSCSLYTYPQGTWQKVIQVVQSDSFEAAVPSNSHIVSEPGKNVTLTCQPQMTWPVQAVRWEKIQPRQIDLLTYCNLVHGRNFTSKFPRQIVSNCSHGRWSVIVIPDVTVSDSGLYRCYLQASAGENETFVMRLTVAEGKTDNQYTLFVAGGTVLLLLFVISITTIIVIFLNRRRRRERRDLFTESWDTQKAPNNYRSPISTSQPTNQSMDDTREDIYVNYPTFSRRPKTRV

Consider Biotin-Protein L (金斯瑞生物科技, 货号 M00097), for which, in assay [1], the 阳性率 (percent positive cells) amounted to 42.6%.
For “anti-CD226 PE (R&D Systems, Inc. #FAB666P) (antibody)”, the 细胞阳性率 (percent positive cells) in assay [2] turned out to be 12.7%.

B1: TIGIT-Fc蛋白 (Fc fusion, UniProt Q495A1 22-141, looked up, not shown: a dimerising Fc or GST)
chain: MMTGTIETTGNISAEKGGSIILQCHLSSTTAQVTQVNWEQQDQLLAICNADLGWHISPSFKDRVAPGPGLGLTLQSLTVNDTGEYFCIYHTYPDGTYTGRIFLEVLESSVAEHGARFQIP
Molecule B1 came in with a 阳性率 (percent positive cells) in assay [3] of 93.2%.

The values above are taken from patent CN111748580A.
